Test results published in US20190119389A1 (POTENZA THERAPEUTICS, published 2019).
Positions count from the first letter of the chain named.

T1: Cyno NRP-1 His (cynomolgus monkey, UniProt O14786 22-856 (human entry), limits assumed)
T1 construct: Recombinant monomeric protein; also called cynomolgus monkey NRP-1-His; cNRP-1; not shown: His tag
T1 chain: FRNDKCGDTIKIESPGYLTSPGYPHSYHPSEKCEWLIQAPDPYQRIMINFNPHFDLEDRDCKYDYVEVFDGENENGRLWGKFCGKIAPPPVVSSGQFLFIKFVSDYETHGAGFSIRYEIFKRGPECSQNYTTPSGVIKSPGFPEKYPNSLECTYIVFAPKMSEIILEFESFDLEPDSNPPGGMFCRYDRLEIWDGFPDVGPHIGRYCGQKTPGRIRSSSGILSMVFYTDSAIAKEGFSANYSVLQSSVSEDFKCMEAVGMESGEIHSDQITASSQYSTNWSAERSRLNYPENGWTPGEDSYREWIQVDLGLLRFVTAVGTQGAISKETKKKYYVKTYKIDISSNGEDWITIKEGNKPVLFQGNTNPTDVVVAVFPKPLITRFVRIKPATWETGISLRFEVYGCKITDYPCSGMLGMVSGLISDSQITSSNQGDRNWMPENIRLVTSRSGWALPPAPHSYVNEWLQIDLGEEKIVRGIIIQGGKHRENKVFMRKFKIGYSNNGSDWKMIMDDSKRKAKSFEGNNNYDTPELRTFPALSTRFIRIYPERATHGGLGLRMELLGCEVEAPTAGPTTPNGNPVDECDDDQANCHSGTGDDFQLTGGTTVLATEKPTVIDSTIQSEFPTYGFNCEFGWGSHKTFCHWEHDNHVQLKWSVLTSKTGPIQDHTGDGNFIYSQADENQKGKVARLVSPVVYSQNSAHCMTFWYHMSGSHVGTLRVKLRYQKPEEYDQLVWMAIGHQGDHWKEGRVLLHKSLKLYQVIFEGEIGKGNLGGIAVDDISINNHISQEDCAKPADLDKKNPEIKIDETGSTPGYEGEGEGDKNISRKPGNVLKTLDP

B1: MAB8 Fab (Fab, V domains shown)
VH: EVQLLESGGGLVQPGGSLRLSCAASGFTFASYAMVWVRQAPGKGLEWVSIISGSGGSTYYADSVKGRFTISRDNSKNTLYLQMNSLRAEDTAVYYCAKDPGYDSSRYYYSNYGMDVWGQGTTVTVSS
VL: DIQMTQSPSSLSASVGDRVTITCRASQSISSYLNWYQQKPGKAPKLLIYGASSLQSGVPSRFSGSGSGTDFTLTISSLQPEDFATYYCQQTYSLYTFGGGTKVEIK
B2: MAB10 Fab (Fab, V domains shown)
VH: B1 VH with A30S, Y32V, I50A, S57A
VL: B1 VL
B3: MAB9 Fab (Fab, V domains shown)
VH: B1 VH with A30K, S57A
VL: B1 VL
B4: MAB12 Fab (Fab, V domains shown)
VH: B1 VH with A30S, Y32V, I50A, S57A, K65E
VL: B1 VL
B5: MAB11 Fab (Fab, V domains shown)
VH: B1 VH with A30S, Y32V, I50A, S57A, K65E, N84S
VL: B1 VL
B6: MAB5 Fab (Fab, V domains shown)
VH: QVQLVQSGAEVKKPGASVKVSCKASGYTFTSYYMHWVRQAPGQGLEWMGIINPQGGDTSYAQKFQGRVTMTRDTSTSTVYMELSSLRSEDTAVYYCARDRGMYYASGFGPWGQGTLVTVSS
VL: EIVMTQSPGTLSLSPGERATLSCRASQSVSSSYLAWYQQKPGQAPRLLIYGASNRATGIPDRFSGSGSGTDFTLTISRLEPEDFAVYYCQQLSSFPITFGGGTKVEIK
B7: MAB6 Fab (Fab, V domains shown)
VH: B6 VH with E10K, A40V, G109N
VL: B6 VL
B8: MAB3 Fab (Fab, V domains shown)
VH: QAQLVQSGAEVKKPGASVKVSCKASGYTFSRYYMHWVRQAPGQGLEWMGIINPLGGSTLYAQKFQGRVTMTRDTSTSTVYMELSSLRSEDTAVYYCARDLGYYGSGMHAWGQGTLVTVSS
VL: DIQMTQSPSSVSASVGDRVTITCRASQGISRWLAWYQQKPGKAPKLLIYAASSLQSGVPSRFSGSGSGTDFTLTISSLQPEDFATYYCQQANLLPFTFGGGTKVEIK
B9: MAB1 Fab (Fab, V domains shown)
VH: QVQLVQSGAGVKKPGASVKVSCKASGYTFRSYYMLWVRQAPGQGLEWMGIIDPSDGSTSYAQKFQGRVTMTRDTPTSTVYMELSSLRSEDTAVYYCARGARRITGYGMDVWGQGTTVTVSS
VL: B8 VL with R31S, S53N, N92S, L93V, L94F
B10: MAB4 Fab (Fab, V domains shown)
VH: B8 VH with A2V, A109V
VL: B8 VL
B11: MAB2 Fab (Fab, V domains shown)
VH: B9 VH with G10E, T74A, P75S, T118I
VL: B8 VL with R31S, S53N, N92S, L93V, L94F
B12: MAB14 Fab (Fab, V domains shown)
VH: QVQLQQWGAGLLKPSETLSLTCAVYGGSFRGYYWEWSRQPPGKGLEWIGEISHSGSTNYNPSLKSRVTISVDTSKNQFSLKLSPVTAADTAVYYCARARPYREPYGMDVWGQGTTVTVSS
VL: B8 VL with M4L, G28D, R31S, A91E, N92L, L93A, L94F, F96R
B13: MAB5 (antibody, V domains shown)
VH: B6 VH
VL: B6 VL
B14: MAB1 (antibody, V domains shown)
VH: B9 VH
VL: B8 VL with R31S, S53N, N92S, L93V, L94F
B15: MAB13 (antibody, V domains shown)
VH: B12 VH with S37I, P84S
VL: B8 VL with M4L, G28D, R31S, A91E, N92L, L93A, L94F, F96R
B16: MAB3 (antibody, V domains shown)
VH: B8 VH
VL: B8 VL
B17: MAB14 (antibody, V domains shown)
VH: B12 VH
VL: B8 VL with M4L, G28D, R31S, A91E, N92L, L93A, L94F, F96R
B18: MAB2 (antibody, V domains shown)
VH: B9 VH with G10E, T74A, P75S, T118I
VL: B8 VL with R31S, S53N, N92S, L93V, L94F
B19: MAB4 (antibody, V domains shown)
VH: B8 VH with A2V, A109V
VL: B8 VL
B20: MAB15 (antibody, V domains shown)
VH: QVQLQQWGAGLLKPSETLSLTCAVYGGSFVKYYWSWIRQPPGKGLEWIGDIWHSGMTNYNPSLKSRVTISVDTSKNQFSLKLSSVTAADTAVYYCARGPGYDSSGYSRRFDPWGQGTLVTVSS
VL: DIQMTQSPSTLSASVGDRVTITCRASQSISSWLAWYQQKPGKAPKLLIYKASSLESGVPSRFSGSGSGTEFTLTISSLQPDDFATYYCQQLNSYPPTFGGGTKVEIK

Each binder was assayed against T2, Human NRP-1 His (human, UniProt O14786 22-856) (assay: MSD-SET solution equilibrium titration, Fab).
T2 construct: Recombinant monomeric protein; Biotinylated in the MSD-SET assay; also called hNRP-1; not shown: His tag
Target sequence in this assay (O14786 22-856 V179A limits assumed): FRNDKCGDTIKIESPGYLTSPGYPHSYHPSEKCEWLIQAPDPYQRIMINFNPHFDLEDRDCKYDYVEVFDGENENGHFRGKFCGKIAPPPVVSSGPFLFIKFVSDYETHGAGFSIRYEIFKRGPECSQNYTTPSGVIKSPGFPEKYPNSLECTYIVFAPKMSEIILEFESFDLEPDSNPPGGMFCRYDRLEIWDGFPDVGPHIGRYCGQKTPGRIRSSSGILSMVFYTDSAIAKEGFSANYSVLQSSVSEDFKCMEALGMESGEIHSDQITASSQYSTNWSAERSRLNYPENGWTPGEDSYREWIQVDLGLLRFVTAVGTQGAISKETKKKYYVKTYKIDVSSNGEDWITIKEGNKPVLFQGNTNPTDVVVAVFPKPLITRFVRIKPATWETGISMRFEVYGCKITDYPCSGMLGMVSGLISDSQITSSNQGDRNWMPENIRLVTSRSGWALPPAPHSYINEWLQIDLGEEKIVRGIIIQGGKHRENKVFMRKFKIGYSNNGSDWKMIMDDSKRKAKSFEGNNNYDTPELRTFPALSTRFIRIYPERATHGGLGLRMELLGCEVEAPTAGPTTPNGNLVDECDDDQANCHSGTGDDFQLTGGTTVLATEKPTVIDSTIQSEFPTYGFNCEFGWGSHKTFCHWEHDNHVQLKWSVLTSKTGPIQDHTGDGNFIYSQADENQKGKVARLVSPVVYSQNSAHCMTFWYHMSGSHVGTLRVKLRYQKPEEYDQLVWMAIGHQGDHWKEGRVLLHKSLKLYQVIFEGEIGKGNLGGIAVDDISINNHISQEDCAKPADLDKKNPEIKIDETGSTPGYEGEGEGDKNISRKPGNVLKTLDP

Kd [nM]	Binder
0.096	B1
0.064	B2
0.019	B3
0.026	B4
0.021	B5
0.28	B6
0.45	B7
0.06	B8
0.32	B9
0.046	B10
0.23	B11
0.28	B12

Each binder was assayed against T3, recombinant human NRP-1 (human, UniProt O14786 22-856, limits assumed) (assay: blocking ELISA: SEMA3A coated, biotinylated human NRP-1 preincubated with IgG1 antibody; competitor SEMA3A).
T3 construct: also called biotinylated human NRP-1
T3 sequence (O14786 22-856 V179A limits assumed): as above

IC50 [nM]	Binder
5.9	B13
2.9	B14
3.4	B15
0.6	B16
3.1	B17
3.1	B18
3.9	B19

What follows are binders tested against T2, Human NRP-1 His (assay: BLI ForteBio, IgG1 N297A on AHQ sensor, 100 nM monomeric antigen, 1:1 fit).

Kd [nM]	Binder
3.23	B13
0.851	B20
1.87	B14
1.41	B15
1.08	B16
1.12	B17
1.86	B18
0.851	B19

These binders were tested against T4, Mouse NRP-1 His (mouse, UniProt P97333 22-856) in the same assay as above.
T4 construct: Recombinant monomeric protein; also called mNRP-1; not shown: His tag

Kd [nM]	Binder
5.06	B13
54.1	B20
2.12	B14
7.42	B15
0.99	B16
5	B17
1.94	B18
0.746	B19

Molecular target: T1, Cyno NRP-1 His
Assay: as above

Kd [nM]	Binder
4.09	B13
9.2	B20
2.16	B14
1.58	B15
1.19	B16
1.1	B17
2.43	B18
0.925	B19
